Results taken from patent US11332499B2, “Cyclic peptides and methods of use thereof” (Regents of the University of Minnesota, priority 2018, dated 2022).
Several values for one entry are separate records, joined by “and”; a condition that tells them apart may be missing. Equal values may be shown once. Entries after “also recorded” stand apart in the source; their conditions may differ. Read-outs that look alike come from different tables or passages of the source. Bridge positions count the residues as written; N and C are the ends. Square brackets hold non-standard residues; d marks the D form. Ends that are not written are not given here.

Tests used:
[1] = target: T1, mMC1R (Mus musculus, UniProt Q01727); experiment: AlphaScreen cAMP assay, agonist activity, HEK293 cells stably expressing mMC1R; assay type: cell-based; conditions: Table 2; at 100 μM, relative to NDP-MSH
T1 construct: expressed in transfected cells

[2] = target: T2, mMC3R (Mus musculus, UniProt P33033); experiment: AlphaScreen cAMP assay, agonist activity, HEK293 cells stably expressing mMC3R; assay type: cell-based; conditions: Table 2; at 100 μM
T2 construct: expressed in transfected cells

[3] = target: T3, mMC4R (Mus musculus, UniProt P56450); experiment: AlphaScreen cAMP assay, agonist activity, HEK293 cells stably expressing mMC4R; assay type: cell-based; parameters: expressed in transfected cells; conditions: Table 2; at 100 μM
[4] = target: T4, mMC5R (Mus musculus, UniProt P41149); experiment: AlphaScreen cAMP assay, agonist and inverse agonist activity, HEK293 cells stably expressing mMC5R; assay type: cell-based; conditions: Table 2; at 100 μM
T4 construct: expressed in transfected cells

[5] = target: T3, mMC4R; conditions: Example 4; from Ki values
[6] = target: hMC1R (Homo sapiens, UniProt Q01726); conditions: inhibition of α-MSH activity, cited from earlier work
[7] = target: hMC3R (Homo sapiens, UniProt P41968); conditions: inhibition of α-MSH activity; cited from earlier work
[8] = target: T5, MC4R (Homo sapiens, UniProt P32245); parameters: expressed in transfected cells; conditions: inhibition of α-MSH activity; cited from earlier work
Target sequence in this assay (P32245 whole entry): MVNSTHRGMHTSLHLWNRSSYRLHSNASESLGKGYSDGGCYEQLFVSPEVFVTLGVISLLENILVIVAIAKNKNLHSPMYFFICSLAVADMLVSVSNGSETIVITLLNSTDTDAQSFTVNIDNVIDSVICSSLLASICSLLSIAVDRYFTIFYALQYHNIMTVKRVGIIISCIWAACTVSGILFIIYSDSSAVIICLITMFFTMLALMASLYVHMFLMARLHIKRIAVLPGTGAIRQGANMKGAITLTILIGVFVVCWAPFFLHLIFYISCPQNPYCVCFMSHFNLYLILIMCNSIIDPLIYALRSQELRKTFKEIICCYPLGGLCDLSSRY

[9] = target: MC1R (Mus musculus, UniProt Q01727); conditions: previously reported; read-out: MC1R agonist potency; cited from earlier work
[10] = target: T5, MC4R; conditions: previously reported; cited from earlier work
Target sequence in this assay (P32245 whole entry, species assumed): as the sequence (P32245 whole entry) above

[11] = tested on: male WT mice; experiment: Mouse feeding study, intrathecal (IT) injection; assay type: in vivo; conditions: 2 nmol IT
Description: This study was conducted in accordance with the guidelines set up by the Institutional Animal Care and Use Committee (IACUC) at the University of Minnesota. Male Wildtype (WT) mice (mixed 129/Sv×C57BL/6J background) derived from an in house breeding colony were used throughout this experiment as previously reported in literature.^14,23,61,63,65 Each mouse was individually housed in standard polycarbonate conventional cages provided by the University of Minnesota's Research Animal Resources (RAR). Mice were singly housed in order to adequately measure food intake of individual mice during experiments. At the beginning of this experiment, mice were age-matched at 24 weeks old. Research lab staff performed weekly cage changes. […] Mice were monitored daily to assess health.
All mouse feeding experiments were designed following a crossover, non-fasting (nocturnal) paradigm. […] Intrathecal injections were performed as previously described.^63,66-68 Mouse body weight and food weight was recorded in 2, 4, 6, 8, 24, 48 and 72 hours post-injection following a single IT injection. […]
Primary dependent variables were: (i) food intake; and (ii) body weight. Food intake and body weight was analyzed a two-factor within-subject Analysis of Variance (ANOVA) with between session variables of compound and the within-subject variable of time. […]

[12] = target: T6, hMC4R-Kir7.1(M125R) (Homo sapiens, UniProt P32245); conditions: up to 100 nM; literature; cited from earlier work
T6 construct: expressed in transfected cells; Kir7.1 tetracycline-induced)

[13] = tested on: rats; conditions: ICV administration into rats; cited from earlier work
[14] = target: T1, mMC1R; conditions: displacement of radiolabeled NDP-MSH; read-out: Ki app, mMC1R; cited from earlier work
[15] = target: T2, mMC3R; conditions: displacement of radiolabeled NDP-MSH; read-out: Ki app, mMC3R; cited from earlier work
[16] = target: T3, mMC4R; parameters: expressed in transfected cells; conditions: displacement of radiolabeled NDP-MSH; read-out: Ki app, mMC4R; cited from earlier work

T1 sequence (Q01727 whole entry): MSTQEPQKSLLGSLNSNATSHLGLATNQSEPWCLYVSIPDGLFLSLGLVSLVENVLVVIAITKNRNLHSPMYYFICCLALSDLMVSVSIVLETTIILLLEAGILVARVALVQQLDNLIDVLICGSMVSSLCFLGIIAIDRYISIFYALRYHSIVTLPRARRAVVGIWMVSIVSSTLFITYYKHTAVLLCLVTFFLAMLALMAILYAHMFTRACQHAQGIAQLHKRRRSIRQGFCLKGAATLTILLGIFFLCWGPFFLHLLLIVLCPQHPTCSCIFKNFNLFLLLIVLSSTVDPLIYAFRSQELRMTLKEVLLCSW
T3 sequence (P56450 whole entry): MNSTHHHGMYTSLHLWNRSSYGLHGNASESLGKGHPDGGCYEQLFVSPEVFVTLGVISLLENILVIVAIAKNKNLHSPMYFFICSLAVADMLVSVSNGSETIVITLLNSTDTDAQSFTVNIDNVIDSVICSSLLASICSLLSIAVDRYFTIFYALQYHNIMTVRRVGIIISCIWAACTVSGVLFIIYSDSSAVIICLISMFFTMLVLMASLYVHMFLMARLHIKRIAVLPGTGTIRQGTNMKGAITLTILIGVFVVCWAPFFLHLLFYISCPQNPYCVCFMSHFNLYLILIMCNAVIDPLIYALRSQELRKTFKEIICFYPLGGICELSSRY
T2 sequence (P33033 whole entry): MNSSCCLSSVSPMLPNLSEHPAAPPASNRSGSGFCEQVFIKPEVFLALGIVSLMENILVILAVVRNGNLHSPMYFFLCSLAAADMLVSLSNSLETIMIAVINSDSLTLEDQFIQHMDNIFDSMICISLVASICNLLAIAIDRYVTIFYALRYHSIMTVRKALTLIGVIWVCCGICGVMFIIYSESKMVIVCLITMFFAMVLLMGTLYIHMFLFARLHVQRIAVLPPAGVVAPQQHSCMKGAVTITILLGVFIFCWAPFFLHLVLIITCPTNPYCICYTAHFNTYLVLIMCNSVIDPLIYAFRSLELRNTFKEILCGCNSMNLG
Sequence of hMC1R (Q01726 whole entry): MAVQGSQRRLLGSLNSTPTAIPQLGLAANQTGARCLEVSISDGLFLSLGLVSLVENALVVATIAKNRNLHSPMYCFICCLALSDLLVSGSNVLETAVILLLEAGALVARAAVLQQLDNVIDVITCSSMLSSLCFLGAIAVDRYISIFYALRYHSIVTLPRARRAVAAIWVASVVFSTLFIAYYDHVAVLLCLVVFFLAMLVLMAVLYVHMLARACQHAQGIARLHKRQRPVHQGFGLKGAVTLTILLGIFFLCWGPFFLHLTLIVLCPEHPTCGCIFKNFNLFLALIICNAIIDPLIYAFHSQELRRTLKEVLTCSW
T4 sequence (P41149 whole entry): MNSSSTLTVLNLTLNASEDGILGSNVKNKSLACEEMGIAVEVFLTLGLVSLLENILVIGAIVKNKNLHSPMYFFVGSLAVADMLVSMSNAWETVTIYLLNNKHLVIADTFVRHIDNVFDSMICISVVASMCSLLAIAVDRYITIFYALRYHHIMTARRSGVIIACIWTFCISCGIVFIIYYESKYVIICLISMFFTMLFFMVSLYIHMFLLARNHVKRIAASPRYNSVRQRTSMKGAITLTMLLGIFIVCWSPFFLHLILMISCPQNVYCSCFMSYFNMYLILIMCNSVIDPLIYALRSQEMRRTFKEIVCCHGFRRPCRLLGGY
Sequence of hMC3R (P41968 whole entry): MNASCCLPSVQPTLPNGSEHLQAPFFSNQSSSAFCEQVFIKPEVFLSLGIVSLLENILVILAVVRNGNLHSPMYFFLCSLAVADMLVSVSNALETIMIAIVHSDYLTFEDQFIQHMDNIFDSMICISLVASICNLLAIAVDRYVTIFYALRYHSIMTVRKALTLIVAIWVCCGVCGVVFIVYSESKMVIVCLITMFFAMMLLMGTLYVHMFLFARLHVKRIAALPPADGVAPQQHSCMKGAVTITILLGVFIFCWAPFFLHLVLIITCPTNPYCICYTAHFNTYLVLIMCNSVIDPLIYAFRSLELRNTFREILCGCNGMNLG
T6 sequence (P32245 whole entry, stated change not applied): as the sequence (P32245 whole entry) above
Sequence of MC1R (Q01727 whole entry): as the sequence (Q01727 whole entry) above

Molecule: 15 (cyclo(PRFFWAF[dP]); SMILES C[C@@H]1NC(=O)[C@H](Cc2c[nH]c3ccccc23)NC(=O)[C@H](Cc2ccccc2)NC(=O)[C@H](Cc2ccccc2)NC(=O)[C@H](CCCNC(=N)N)NC(=O)[C@@H]2CCCN2C(=O)[C@H]2CCCN2C(=O)[C@H](Cc2ccccc2)NC1=O) [Peptide 15]
- mMC1R percent maximal stimulatory response [1]: 80% @ 100 μM
- mMC3R percent maximal stimulatory response [2]: 40% @
- mMC4R percent maximal stimulatory response [3]: 50% @

Molecule: 20 (cyclo(PRFFNFF[dP]); SMILES N=C(N)NCCC[C@@H]1NC(=O)[C@@H]2CCCN2C(=O)[C@H]2CCCN2C(=O)[C@H](Cc2ccccc2)NC(=O)[C@H](Cc2ccccc2)NC(=O)[C@H](CC(N)=O)NC(=O)[C@H](Cc2ccccc2)NC(=O)[C@H](Cc2ccccc2)NC1=O) [Peptide 20]
- mMC1R percent maximal stimulatory response [1]: 70% @ 100 μM
- mMC3R percent maximal stimulatory response [2]: 35% @
- mMC5R percent maximal stimulatory response [4]: 25% @
- fold selectivity for the mMC4R over the mMC3R [5]: 600 fold and 630 fold
- mMC4R percent maximal stimulatory response [3]: 35% @

Molecule: ASP-YY: synthesized ASP variant with two residues changed to the homologous AGRP residues (KKVVRPRTPLSAPCVATRNSCKPPAPACCDPCASCYCRFFRSACYCRVLSLNC; UniProt P42127 80-132, looked up, variant Q115Y S124Y)
- functional antagonist potency, hMC1R [6]: 3.9 nM
- functional antagonist potency, hMC1R ([6]; listed as Agouti-YY): 4.0 nM
- functional antagonist potency, hMC3R [7]: 2.6 nM
- functional antagonist potency, hMC4R [8]: 0.5 nM

Molecule: H-DPAATAYCRFFNAFCYARKL-OH (disulfide 8-15) [20 residue peptide]
- EC50 [9]: 960 nM
- MC4R antagonist pA2 [10]: 6.9

Molecule: c[Pro-Arg-Phe-Phe-Asn-Ala-Nle-DPro] [Compound 7 (Example 3)]
- mouse body weight vs vehicle control [11]: treated animals weighing more than control animals
- cumulative food intake vs vehicle ([11]; single injection, listed as KAF2039-7): statistically significant increase in food intake at 2 and 6 hours post-injection; also recorded: prolonged trend of increased food intake up to 72 hours post-injection

Molecule: mini-AGRP: truncated form of AGRP (AGRP87-120, C105A) (CVRLHESCLGQQVPCCDPAATCYCRFFNAFCYCR; ends and bridges not checked; cysteine pairing not given here; UniProt O00253 87-120, looked up, fragment C105A)
- effect on thallium flux [12]: did not affect thallium flux at concentrations up to 100 nM
- increase of 24 h food intake above saline [13]: 21%

B1: mASP: recombinant mouse agouti-signaling protein (protein, UniProt Q03288 23-131, looked up)
Agouti-signaling protein: HLALEETLGDDRSLRSNSSMNSLDFSSVSIVALNKKSKKISRKEAEKRKRSSKKKASMKKVARPPPPSPCVATRDSCKPPAPACCDPCASCQCRFFGSACTCRVLNPNC
- Ki [14]: 2.6 nM
- Ki [15]: 190 nM
- Ki [16]: 54 nM
